First the molecules themselves.
B1: D3-L11 A79T (VHH)
VHH: DVQLVESGGGSVQAGGSLRLSCAASGSTDSIEYMTWFRQAPGKAREGVAALYTHTGNTYYTDSVKGRFTISQDKAKNMTYLRMDSVKSEDTAIYTCGATRKYVPVRFALDQSSYDYWGQGTQVTVSS
notes: as the VHH chain of Sm1 (D3-L11 wild type, PDB 6JB8) with A79T; SAG tripeptide linker before the C-terminal 6xHis tag; source: ExpiCHO, transient transfection, purified from supernatant (His Mag Sepharose excel); not shown: His6, C-terminal, kept
B2: D3-L11 A79V (VHH)
VHH: B1 VHH with T79V
notes: as the VHH chain of Sm1 (D3-L11 wild type, PDB 6JB8) with A79V; SAG tripeptide linker before the C-terminal 6xHis tag; source: ExpiCHO, transient transfection, purified from supernatant (His Mag Sepharose excel); not shown: His6, C-terminal, kept
B3: anti-lysozyme VHH D3-L11, wild type (VHH)
VHH: B1 VHH with T79A
notes: anti-hen egg lysozyme VHH D3-L11, 127 amino acids; A SAG tripeptide linker stands between the VHH and the C-terminal 6xHis tag; also called WT; source: ExpiCHO, transient transfection, purified from supernatant (His Mag Sepharose excel); not shown: His6, C-terminal, kept
B4: D3-L11 A79Y (VHH)
VHH: B1 VHH with T79Y
notes: as the VHH chain of Sm1 (D3-L11 wild type, PDB 6JB8) with A79Y; SAG tripeptide linker before the C-terminal 6xHis tag; source: ExpiCHO, transient transfection, purified from supernatant (His Mag Sepharose excel); not shown: His6, C-terminal, kept
B5: D3-L11 A79F (VHH)
VHH: B1 VHH with T79F
notes: as the VHH chain of Sm1 (D3-L11 wild type, PDB 6JB8) with A79F; SAG tripeptide linker before the C-terminal 6xHis tag; source: ExpiCHO, transient transfection, purified from supernatant (His Mag Sepharose excel); not shown: His6, C-terminal, kept
B6: D3-L11 A79Q (VHH)
VHH: B1 VHH with T79Q
notes: as the VHH chain of Sm1 (D3-L11 wild type, PDB 6JB8) with A79Q; SAG tripeptide linker before the C-terminal 6xHis tag; source: ExpiCHO, transient transfection, purified from supernatant (His Mag Sepharose excel); not shown: His6, C-terminal, kept
B7: D3-L11 A79L (VHH)
VHH: B1 VHH with T79L
notes: as the VHH chain of Sm1 (D3-L11 wild type, PDB 6JB8) with A79L; SAG tripeptide linker before the C-terminal 6xHis tag; source: ExpiCHO, transient transfection, purified from supernatant (His Mag Sepharose excel); not shown: His6, C-terminal, kept
B8: D3-L11 A24L (VHH)
VHH: B1 VHH with A24L, T79A
notes: as the VHH chain of Sm1 (D3-L11 wild type, PDB 6JB8) with A24L; SAG tripeptide linker before the C-terminal 6xHis tag; source: ExpiCHO, transient transfection, purified from supernatant (His Mag Sepharose excel); not shown: His6, C-terminal, kept
B9: D3-L11 A79M (VHH)
VHH: B1 VHH with T79M
notes: as the VHH chain of Sm1 (D3-L11 wild type, PDB 6JB8) with A79M; SAG tripeptide linker before the C-terminal 6xHis tag; source: ExpiCHO, transient transfection, purified from supernatant (His Mag Sepharose excel); not shown: His6, C-terminal, kept
B10: D3-L11 A79S (VHH)
VHH: B1 VHH with T79S
notes: as the VHH chain of Sm1 (D3-L11 wild type, PDB 6JB8) with A79S; SAG tripeptide linker before the C-terminal 6xHis tag; source: ExpiCHO, transient transfection, purified from supernatant (His Mag Sepharose excel); not shown: His6, C-terminal, kept
B11: D3-L11 A79I (VHH)
VHH: B1 VHH with T79I
notes: as the VHH chain of Sm1 (D3-L11 wild type, PDB 6JB8) with A79I; SAG tripeptide linker before the C-terminal 6xHis tag; source: ExpiCHO, transient transfection, purified from supernatant (His Mag Sepharose excel); not shown: His6, C-terminal, kept
B12: D3-L11 A79R (VHH)
VHH: B1 VHH with T79R
notes: as the VHH chain of Sm1 (D3-L11 wild type, PDB 6JB8) with A79R; SAG tripeptide linker before the C-terminal 6xHis tag; source: ExpiCHO, transient transfection, purified from supernatant (His Mag Sepharose excel); not shown: His6, C-terminal, kept
B13: D3-L11 A79H (VHH)
VHH: B1 VHH with T79H
notes: as the VHH chain of Sm1 (D3-L11 wild type, PDB 6JB8) with A79H; SAG tripeptide linker before the C-terminal 6xHis tag; source: ExpiCHO, transient transfection, purified from supernatant (His Mag Sepharose excel); not shown: His6, C-terminal, kept
B14: D3-L11 G97F (VHH)
VHH: B1 VHH with T79A, G97F
notes: as the VHH chain of Sm1 (D3-L11 wild type, PDB 6JB8) with G97F; SAG tripeptide linker before the C-terminal 6xHis tag; source: ExpiCHO, transient transfection, purified from supernatant (His Mag Sepharose excel); not shown: His6, C-terminal, kept
B15: D3-L11 G26I (VHH)
VHH: B1 VHH with G26I, T79A
notes: as the VHH chain of Sm1 (D3-L11 wild type, PDB 6JB8) with G26I; SAG tripeptide linker before the C-terminal 6xHis tag; source: ExpiCHO, transient transfection, purified from supernatant (His Mag Sepharose excel); not shown: His6, C-terminal, kept
B16: D3-L11 A79C (VHH)
VHH: B1 VHH with T79C
notes: as the VHH chain of Sm1 (D3-L11 wild type, PDB 6JB8) with A79C; SAG tripeptide linker before the C-terminal 6xHis tag; source: ExpiCHO, transient transfection, purified from supernatant (His Mag Sepharose excel); not shown: His6, C-terminal, kept
B17: D3-L11 A79N (VHH)
VHH: B1 VHH with T79N
notes: as the VHH chain of Sm1 (D3-L11 wild type, PDB 6JB8) with A79N; SAG tripeptide linker before the C-terminal 6xHis tag; source: ExpiCHO, transient transfection, purified from supernatant (His Mag Sepharose excel); not shown: His6, C-terminal, kept

Changes are numbered by the printed parent chain. Names and notes keep the numbering of the source.

The target in this assay is T1, hen egg lysozyme (Gallus gallus (hen egg white), UniProt P00698).
T1 construct: hen egg lysozyme (HEL), the antigen of D3-L11; also in PDB 6JB8; The supplier is named for the ELISA only; also called HEL; antigen lysozyme; source: bought: Sigma-Aldrich, Cat No. L6876
T1 sequence (P00698 19-147): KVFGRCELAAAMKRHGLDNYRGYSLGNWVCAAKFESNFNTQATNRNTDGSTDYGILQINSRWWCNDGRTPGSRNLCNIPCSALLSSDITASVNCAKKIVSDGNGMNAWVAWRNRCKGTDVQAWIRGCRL
Put plainly: SPR; Biacore T200; lysozyme immobilised on Sensor Chip CM5 by amine coupling (200 RU); VHH injected 300 s, dissociation 600 s in PBST (PBS, 0.005% Tween 20); 1:1 binding model; duplicate. Conditions: both partners purified. A general note: Surface plasmon resonance follows binding to a sensor surface in real time, without labels.
For B1, the Kd (as a rule, the constant that tells how readily two partners part at equilibrium) stood at 13.1 ± 0.4 pM.

B2 displayed a Kd of 3.66 ± 0.13 pM. The molecule B3 registered a Kd of 3.17 ± 0.19 pM. To B4 belongs 5.57 ± 0.04 pM; to B5, 12.1 ± 0.2 pM; to B6, 7.2 ± 0.03 pM. To B7 belongs 6.54 ± 0.03 pM; to B8, 43.6 ± 1.3 pM. Molecule B9 gave an equilibrium dissociation constant (Kd) of 6.91 ± 0.1 pM.

The molecule B10 registered a Kd of 11.7 pM. The value for B11 was 4.92 ± 0.12 pM; that for B12 was 26 ± 0.1 pM. For B13, binding was characterised by a dissociation constant (Kd) of 23.1 pM.

As for B14, the Kd is 6 ± 0.4 pM. The value for B15 was 25 ± 0.3 pM; that for B16 was 3.74 ± 0.03 pM. The value for B17 was 8.04 ± 0.07 pM.

The record behind these values is publication PMC10039853, “Increasing the melting temperature of VHH with the in silico free energy score” (Scientific Reports, 2023).
